Laboratory results published in paper PMC13235457.

Tests used:
[1] = target: ZAP-70 tSH2 domain R190A mutant (human) (UniProt P43403); assay: ITC; 20 μM R190A tSH2 in the cell, 300 μM ITAM-ζ1-Y2P in the syringe; 20 °C; 20 mM HEPES pH 8.2, 5 mM β-mercaptoethanol, glycerol-free; 5 mM KCl; one-site model
[2] = target: ZAP-70 tSH2 domain R190A mutant (human) (UniProt P43403); assay: ITC; 20 μM R190A tSH2 in the cell, 300 μM ITAM-ζ1-Y2P in the syringe; 20 °C; 20 mM HEPES pH 8.2, 5 mM β-mercaptoethanol, glycerol-free; 20 mM KCl; one-site model
[3] = target: ZAP-70 tSH2 domain R190A mutant (human) (UniProt P43403); assay: ITC; 20 μM R190A tSH2 in the cell, 300 μM ITAM-ζ1-Y2P in the syringe; 20 °C; 20 mM HEPES pH 8.2, 5 mM β-mercaptoethanol, glycerol-free; 150 mM NaCl; one-site model

ITAM-ζ1-Y2P peptide (doubly phosphorylated first ITAM of the CD3-ζ chain)
Kd [1]: 9.77 µM | Kd [2]: 20.9 µM | Kd [3]: 6.33 µM
